Key:
Conditions in all cases: FMN input: 0 or 200 uM; Eterna round: R93 (includes R88 designs)
MS2 coat protein [1] = assay: apparent KD of MS2 coat protein, switch ON state; designed switch direction (-1 OFF switch, 1 ON switch): 1; higher = weaker reporter binding
In short: (§1)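 Illumina sequencing clusters were used for on-chip transcription of designed RNA switches. Titration with SNAP-549-labelled MS2 coat protein followed, in twofold steps from 0.7 or 1.5 nM to 3 µM in 100 mM Tris-HCl pH 7.5, 80 mM KCl, 4 mM MgCl2, without or with constant ligand. Apparent KD is each design's median of fits to normalised cluster binding curves.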

MS2 coat protein [2] = assay: apparent KD of MS2 coat protein, switch OFF state (with FMN for OFF switches, without FMN for ON switches); designed switch direction (-1 OFF switch, 1 ON switch): 1; higher = weaker reporter binding
In short: as §1

MS2 coat protein [3] = assay: apparent KD of MS2 coat protein, switch ON state; designed switch direction (-1 OFF switch, 1 ON switch): -1; higher = weaker reporter binding
In short: as §1

MS2 coat protein [4] = assay: apparent KD of MS2 coat protein, switch OFF state (with FMN for OFF switches, without FMN for ON switches); designed switch direction (-1 OFF switch, 1 ON switch): -1; higher = weaker reporter binding
In short: as §1

| Sequence | apparent KD of MS2 coat protein (MS2 coat protein [1]) | apparent KD of MS2 coat protein (MS2 coat protein [2]) | apparent KD of MS2 coat protein (MS2 coat protein [3]) | apparent KD of MS2 coat protein (MS2 coat protein [4]) |
| --- | --- | --- | --- | --- |
| AAAAAAAAGGGUGAGGAUAUAGAAAAAAAAACAUGAGGAUCACCCAUGUGAAAAAAAAAAAAAAGCUAGAAGGCACAAAAAAAAAA [Same State 2] | 0.0792 µM | 0.159 µM | – | – |
| AAAAAACAUGAGGAUCACCCAUGUAAUACAACAUCAGGAUAUUGGCUUUACUAUGUAUUACAAGAAGGGAUGAAAA [Same State 1.3c (Same State 1 - Omei 2 )] | 0.171 µM | 0.0538 µM | – | – |
| AAAAAACAUGAGGAUCACCCAUGUAGAAACAUGGGAGGAUAUACAAAGACGAAAGUCAAAGUAGAAGGCCUAAAAG [Mat - Same State 1 - Mod - D158] | 0.224 µM | 0.0692 µM | – | – |
| AAAAAACAUGAGGAUCACCCAUGUCAAAAGACAUGAGGAUAUGUGUGGAAACCAUACUAUACAGAAGGCAUAAAAA [SS1 - 1008] | 0.105 µM | 0.159 µM | – | – |
| AAAAAACAUGAGGAUCACCCAUGUCAAAAGACGUGAGGAUAUGUACAGACUUCGGUCUGUACAGAAGGCACAAAAA [SS1 - 1031] | 0.0172 µM | 0.0403 µM | – | – |
| AAAAAACAUGAGGAUCACCCAUGUCCUCGGACGUGAGGAUAUGUACAGACUUCGGUCUGUACAGAAGGCAUGAAAA [SS1 - 1059] | 0.432 µM | 0.201 µM | – | – |
| AAAAAACAUGAGGAUCACCCAUGUGCAAAAUUCGCAGGAUAUUCCUCAAUUAAAUGAGAGGAAGAAGGGUGAAAAA [Nob's Hobby 26 - Jieux - Same State 1] | 0.0213 µM | 0.171 µM | – | – |
| AAAAAACAUGAGGAUCACCCAUGUGGGAAUAUGGAAGGAUAUACAAAGACGAAAGUCAAAGUAGAAGGUCUAAAAG [76%, Meechl 2] | 0.0396 µM | 0.0419 µM | – | – |
| AAAAAAUAAAAAAAGGAUAUAAAUGGUACAACAUGAGGAUCACCCAUGUAGUACCAAAAAAUAAAAAAGAAGGAAAAAUAAAAAA [SS2: MS2 22] | 0.0208 µM | 0.0237 µM | – | – |
| AAAAACAUGGUGUAGGAUAUAUUAAUAGUCACAUGAGGAUCACCCAUGUUCAGAUAUCUGAACGAGUAGAAGGACGAUGAAAAAA [Mat - Same state - Malcolm Mod - D109] | 0.454 µM | 0.349 µM | – | – |
| AAAACACAUGAGGAUCACCCAUGUAAAAACAAGAGAGGAUAUGCUUGGAAAACAUGCUAUGCAGAAGGCUCAAGUG [SS1 - 10] | 0.0192 µM | 0.0245 µM | – | – |
| AAAACACAUGAGGAUCACCCAUGUAAAAACAUGGGAGGAUAUGCUUGGAAAACAUGCUAUGCAGAAGGCUCAAGUG [SS1 - 12] | 0.0726 µM | 0.0464 µM | – | – |
| AAAAGACAUGAGGAUCACCCAUGUAAAAACGUAGGAGGAUAUGUAUGGAAACCAGACUGUACAGAAGGCCUUUGUC [SS1 - 73] | 0.02 µM | 0.0194 µM | – | – |
| AAAAGACAUGAGGAUCACCCAUGUAAAGACAUAGGAGGAUAUGUCAUGAAAAAAGACUUGACAGAAGGCCUUUGUC [SS1 - 50] | 0.0204 µM | 0.0204 µM | – | – |
| AAAAGACAUGAGGAUCACCCAUGUCAAAACGUAGGAGGAUAUGUCUUGAAAAAAGACUUGACAGAAGGCCUGUGUC [SS1 - 54] | 0.0151 µM | 0.017 µM | – | – |
| AAAAGACAUGAGGAUCACCCAUGUCUUCGGACAUGAGGAUAUGUACAGACUUCGGUCUGUACAGAAGGCAUAAAAA [SS1 - 1062] | 0.0211 µM | 0.0822 µM | – | – |
| AAAAGACAUGAGGAUCACCCAUGUGAAAACGUACAAGGAUAUGUGUGGAAACCGUACUAUACAGAAGGUGUCUGUC [SS1 - 87] | 0.063 µM | 0.0302 µM | – | – |

| Sequence | apparent KD of MS2 coat protein (MS2 coat protein [1]) | apparent KD of MS2 coat protein (MS2 coat protein [2]) | apparent KD of MS2 coat protein (MS2 coat protein [3]) | apparent KD of MS2 coat protein (MS2 coat protein [4]) |
| --- | --- | --- | --- | --- |
| AAAAGACAUGAGGAUCACCCAUGUGAAAACGUGCGAGGAUAUGUGUGGAAACCGUACUAUACAGAAGGCGCGUGUC [SS1 - 84] | 0.0222 µM | 0.0339 µM | – | – |
| GGAGGCCAAGGAUAUACAUGAGGAUCACCCAUGUGAGAGAAAAAAGUGAGAAAGAAAAGUAGAAGGUGGUUUCG [salish99-ex3-129] | – | – | 0.0654 µM | 0.131 µM |
| GGCUGGCGAGGAUAUACAUGAGGAUCACCCAUGUGAGAGAAAAAAGUGAGAAAGAAAAGUAGAAGGCGCUGGCG [salish99-ex3-55] | – | – | 0.0341 µM | 0.0814 µM |
| GGGUAACAUGAGGAUCACCCAUGUGAGGAUAUCCUAGGGAUGGAAGCCAGGCCAAAAAGGAGAAGGUACUAAAG [Janelle Amethyst 18 Mod 17 - Jieux - Exclusion 1] | – | – | 0.0542 µM | 0.0724 µM |
| GGGUAACAUGAGGAUCACCCAUGUGAGGAUAUGCUAGGGAUGGAAGCCAGGCCAAAAAGCAGAAGGUACUAAAG [Janelle Amethyst 18 Mod 16 - Jieux - Exclusion 1] | – | – | 0.0236 µM | 0.0343 µM |
| GGUUGAGAAGGAUAUACAUGAGGAUCACCCAUGUGAGAGAAAAAAGUGAGAAAGAAAAGUAGAAGGUCUUGACG [salish99-ex3-63] | – | – | 0.029 µM | 0.0959 µM |
| GGUUGAUGAGGAUAUACAUGAGGAUCACCCAUGUGAGAGAAAAAAGUGAGAAAGAAAAGUAGAAGGCAUUGACG [salish99-ex3-60] | – | – | 0.0377 µM | 0.0694 µM |
| GGUUGGCAAGGAUAUACAUGAGGAUCACCCAUGUGAGAGAAAAAAGUGAGAAAGAAAAGUAGAAGGUGUUGACG [salish99-ex3-75] | – | – | 0.0268 µM | 0.053 µM |
| GGUUGGCGAGGAUAUACAUGAGGAUCACCCAUGUGAGAGAAAAAAGUGAGGAGGAGAAGUAGAAGGCGCUGACG [salish99-ex3-17] | – | – | 0.0189 µM | 0.0037 µM |
| GGUUGGCGAGGAUAUACAUGAGGAUCACCCAUGUGAGAGAAAAAAGUGUGAAAGAAAAGUAGAAGGCGCUGACG [salish99-ex3-54] | – | – | 0.031 µM | 0.013 µM |
| GGUUUGCAAGGAUAUACAUGAGGAUCACCCAUGUGAGAGAAAAAAGUGAGAAAGAAAAGUAGAAGGUGCGGACG [salish99-ex3-121] | – | – | 0.0223 µM | 0.0627 µM |
| GGUUUGCUAGGAUAUACAUGAGGAUCACCCAUGUGAGAGAAAAAAGUGAGAAAGAAAAGUAGAAGGAGCGGACG [salish99-ex3-122] | – | – | 0.0682 µM | 0.0664 µM |
| GUGUACAGAGGAUAUACAUGAGCAUGGAAACAUGCAAGAUCACAUGAGGAUCACCCAUGUAGAAGGCUGUACAC [Ex2: 733] | – | – | 0.0503 µM | 0.0308 µM |
| GUUAUGUGAGGAUAUAUGUAGGAAACUACAUUAAGGGUAUCACAUGAGGAUCACCCAUGUAGAAGGCGCGUAGC [Ex2Try2_Neo] | – | – | 0.283 µM | 0.256 µM |
| UAAAAGUGAGGAUAUGUCAAAAGUCACAAAAGUGACAAAAGACAGAAGGCACAUGAGGAUCACCCAUGUGAAAU [Mat - Exaclusion 4 - Eli mod - D56] | – | – | 0.0233 µM | 0.0322 µM |
| UCCGCACAUGAGGAUCACCCAUGUCAGGAUAUACAAGAAAAUCAGGCUAAUGCCUGAAGUAGAAGGGACGAGGA [Armaingean] | – | – | 0.0277 µM | 0.016 µM |
| UCCUGACAUGAGGAUCACCCAUGUCAGGAUAUAGUAUGAAAAAAAAAAAAAAAAAAUACUAGAAGGGACAUGGG [Design 12: Super Stable Short Helix 3] | – | – | 0.0292 µM | 0.0216 µM |
